We go through one substance from PMC5658623.

By stoichiometry N is commonly meant the number of molecules, sites or subunits per partner or assembly.

This assay addresses PhaPTD from Halomonas bluephagenesis TD01 (Halomonas bluephagenesis TD01). Put plainly: SEC-MALS; Superdex 200 gel filtration connected to an eighteen-angle static light scattering system (DAWN HELEOS II); HBS buffer (1.5 mM Na2HPO4, 50 mM HEPS, 150 mM NaCl); sample at 1 mg/mL; 0.5 mL/min; 16°C. On the technique in general: In gel filtration, larger molecules generally elute earlier.

In turn, “PhaPTD from Halomonas bluephagenesis TD01 (natural protein)” yielded a stoichiometry N of 3.
